Data taken from a protein production outcome set (Wang et al. 2014).

assay: label from the status in PepcDB records

Sequence | protein production
MSVLIYVESNGSEIKKSSMDAVAYGTQVASKLGGSAIVVAIGNIPQEQLTALGNFGASKVLHVTGDAFNQNAPLASAAAVVEAAKKAGAKVIVLPKSTLVDSFAPKLASQLKAGVVTNVTELPDTSAGFQVKRSIFTGKAFATVSINTDIKVITLAKNAYQGTETGGTAAVEALSVSLTDADTKVKTTNVEKMSGELLLTEAEIVVSGGRGLKGPENWGVLLDLAKALGAATGCSKPVSDMDWRPHHEHVGQTGVKVAPNLYIAVGISGAIQHLAGVNSSKCIVVINKDPEAPFFKAADYGIVGDLFEVLPKLTEAAKLLK | failed
MSVLKEYRTVSEVVGPLMIVDQVAGVHYNELVDITLHNGERRKGQVLEVQGDKAMVQLFEGSTGINLAKTKVRFTGHPLELAVSEDMVGRIFDGMGQPIDGGPELIPEKYLDIDGQAINPVARDYPDEFIQTGISAIDHLNTLVRGQKLPVFSGSGLPHNELAAQIARQATVLNSDDNFAVVFAAMGITFEEAEFFMNDLRETGAIDRSVLFINLANDPAIERIATPRIALTTAEYLAYEKGMHVLVIMTDMTNYCEALREVSAARREVPGRRGYPGYLYTNLSTLYERAGRLIGKKGSVTQIPILTMPEDDITHPIPDLTGYITEGQIILSQELYKNGFRPPINVLPSLSRLKDKGSGEGKTRQDHAATMNQLFAAYAQGKQAKELAVVLGESALSETDKLYVAFTNRFEEEYINQGFYTNRSIEESLDLGWELLSILPRTELKRIKDDMLDRYLPKADTTMTKVFVAND | failed
MSVLVVGGDEITPIKAVLENLGCKDITHWDGRRESINRKNIPQNTECLVLLTNFLNHNTMKKFRGEAKKRNIPVVCSKRSVSCLYCEYCKIFGEAAAKNCPLNSFELEHHHHHH | failed
MSVNDQITHIGKTLSTTASAFLNYQKSNSNTQDVLTNNGPYKNLLSNTVNNASSTSYFYKRTEHGRFVKNASNTFEDIYSKTRRGDVFRNKFTDNKTCFRMLTYISDDLLNEIPTKEGLKSDADGKLLTEGGENENLRKNASKKETSLFQGFKSYLPIAELAIENTERLNYDTNGTSGTVGAKDVMSKTNERDEIHTELPNFQDSFLIPPGVETKKISSSYSPSALKSFSQTLVNSLEFLNIQKNSTLSEIRDIEVEVENLRQKKEKLLGKIANIEQNQLLLEDNLKQIDDRLDFLEEYGLEVIEANSDENAEDDGMSERKALKNDAIRNEGVTTESISSEASNLPPRRRQQLRDDNSLNRLGAFYSKSKKRHRKSFPTFQQLYEPGTKIGSIMSTHDDFLTCLDFDAPFGTLCTAGYLDHTVKIWDLSKQNKIGELAGHLATINCMQINRDYGTLVTGGRDAALKLWNLNLAQQLYQETQNLTSPTNHIDSPCVHTFEAHTDEVTALSLDPSFLVSGSQDRTIRQWDLRSGKCLQTIDLSFANVLTTSTNVDLSKSTLLTQRNERPSIGALQSFDAALATGTKDGVVRLWDLRSGKVIRTLKGHTDAITSLKFDSACLVTGSYDRTVRIWDLRTGLLNKFHAYSAPVLSLDLFQENAAVVVADEPSVQIYDSEKDESWSCVEQGNETSVSTVKYKENYMVEGRENGDVNIWAV | failed
MSVNESVNRIVGGSGVILAGTFLGMLLDILIKKVMTSHLSPADFGTYSLALTVISITGAVATLGLNEGVPRYIAFFRGRQEEQKVHELIISAILMGLIAGLLAILVSPSLFESLAGKGFDAQGQILSVVKILVFAIPFTILLNLTVAIYRGFDRTNVNMYFYNIIRPLSLLGFASAAVYFGASLKGVVFADLISMVFTFSIMSVYFVKKPPVKPEWKIKFSEPTRQLIRYSFPLLITATLLNLMSWIDTIMLGYFRPAEVVGVYNAVYPIVGFLSLVIASMGYVYVPVASKLWGLNKTQPVGSIYAVMTKWCFLLTFPIFALIFVYPEFLITKLYGAEYVGGTTALRILAMGFIANSYFGFNYHTLLASGDSDFLMRCSVASAGINAVVNFMLIPEYGMIGAAIGTAVSYASIEVSMTLRAWRKQKMHPFTSMYRKLTLVCVVMTATMLAAKIIIPLSGAAWEYAVFIIVYFAVIHYAKILDKDEISMVDEIRKNIRQNVSVHVPQAIKTLVP | failed
MSVNLGSLPRQRSLLSRLRDLWPLWLFLALLASALHYIVRYWPQIVLQSAIWQKSLHQQMSHLLQMVEQQPHQAGLSLMMFSLVYGVLHAVGPGHGKVVIMTYLATHPSKLKSSLKLTLAASLVQGLMAIALVTVVLGILQLSSRTLHNSSFWMEKGSFVLVAGLGLLLCFRALKQLYIVLVRQPKPATILRVIPLPVTPLNVAAHGRMTLSPIYAPSHSLHQHDVDCGCGHRHLPSNEELERGSSWHTRLMIVLAMGMRPCSGAIMVLLFSKVIGVYLWGVASALVMAAGTAITISALAVLVFYCRRVIERLGANRASPVWQRATFSLLSFAGGMILVGSGILLYLSAQPAMMGGIRPFSG | failed
MSVPDNVYLIGTMNTADRSLAGLDIALRRRFDFVEMAPRPDKLTGVKVAEIDISAVLETMNRRIEVLLDREHRLGHAYFMSLENSNDLSRLSNIFRQQIIPLLQEYFFEDWQRIAWILNDHRKDERFRFIVPAPYSVDSLFGDTGQVAQDSKAWRMNEEAFHKPLEHHHHHH | failed
MSVSAELSQTIINNQVTSVLILDESLMIRYANPAAEQLFSQSAKRLMHQSLNHLVQHSSLDLQLLTQPLQSGQSITDSDVTLVIDSKPLMLEVTVSPISWHKELLLLAEMRTIG | failed
MSVSGPCLSCDTPGCTMQAHSDSDESFFERAWAVVAQIPVGRVTTYGDIAAHLGRRGAARIVGWALKDAVGGDLPCHRVVNRNGVLTGRRHFETPHVMAERLRSEGVTFVAEDQVDLDAHRWRPGEAE | failed
MSVSVKGNEQLTSLLNDWYRAMLSQQVIKATNLKKKIDEKINKLSIEPDQEHQDQNLLLYYSLLEFRYKVLTDSLGIQQNSFDTISDYDMPTDQFLQFYYHFFKSIHSTFISNYTEAEEHYKLAEKILVAIPDEIEHAEFYYRIATFYHHTYNNLASIEYANKSRAIFSKYEGYEVKTAFCNSLLGGCCIYLKQYEQAEEYLHCAIDLLQKNREEDSLLYVKNTMGWLYSDQSMSTLAIRHLSEVTEKIPTHFKAIFLQAKEHYKLGEQSTASQLIDKGLQICREIHNEEYTHHFSILKKLNENIPLEELEKIIQEGILYFEEEELWEYVVEYAELFATKCRQLENHQKVSDYFHICYQARQKSIAKGVLK | failed
MSVYKLTDLRDNSTNWKINVKILSIWNHPPNSHGEIMTMILHDDKNNRVDATIPQGNYHNPFRPFLKPGTWIHISDFRVIVPQSRVRYSSFCFHIKFIWETSVYPLPELVKRDFFDFIFPIDLKYPCLEDWDYVTDAMSEVTNISAIKKFPFVCRQGETDYESRYVSFELLDNMGEKMKCYAVGRCCELFVINFSKCISSASYNYQPIVAIVRFWRIAEIEGENVLKSEFGCSRIYLNPTNFPEIDIQSYIRGFEDYDELPENPRMEVIEEN | failed
MSWACRPATAQRQAGRNGGAPTVQSRVPRRASPRTHHPFVRLVATTLRPVRPYSDLLQHRLLHPMHRFVIVGLGNFGASVAEALYSHGHDVIAVDVDEQAVDDIAPHCSRAAVGDGREAATLEEIGAEAADAAVVSTGDDITASILATMALQDLGVDVVYVKVISDNHARIMRQLGATEAVFPERDSAFNLASRISEKGVVNYVRMGRNLSVQELVVPEEWRGHTLRELDVRAEYGVSVVGIHETTIDDMIVPPNPDDTLRHTDTLILAGTDEAIEKVADLASATAEEAE | failed
MSWENPGPPKRADARRNYDRIIEAAAAEVARHGADASLEEIARRAGVGSATLHRHFPSRWGLLQAVFQERVAQLCDEARSLAAEHPPATALTRWLTSLAVFGAVTRGAARSLLPATGTNTGAALDSRCEQLLTEAGADLLARAQEDGTVRDDVTALELLSLANAVSLAAEHTPDAAHHATRLMGIALGGLGAPGPRPQG | not failed
MSWFDDLFSNKENSDEELLRRKSKRRNGDLTQNKDDSLLPENNDIYDRPRGKFRFPIDVGQDENYEEAIYRDSNDDIGSYRPHSSNDHSSYDSFDYDGHTNQSNNYAKYDSSEDSRRRRRRNHINQDDTGIPSIKSRSPKSSNKYIDTRESQRFNKHQNNYSSTNVSNYSKANSNHQSRVKLQSERFKSNYHLSSEPTYHRSSFKTSEVPSAIFGTKKRRPIENGVIPPVKDDEDSKESITKYSSSTVEHVPHESNHAIADNSNKEDTKRSSQLDSSITIENESTIESSSNTSNNNERTPNYSKRDNTVNIENIYASQIVEEIRKERERKVQQKRKFKEALQNKRQQTDEEDSIQRAIDEMYAKQAEQYTGESSLNQGDNVSNKSNESEIDKSKHSYHSKDKSLVDEHNGLVQNQTDEQTNSDNVDNQTEVSNESHEPYNYEEIDLNQVSSVQQVRQDDVQVKDVLEEQSSKINNNKVESYSNEKFDDYLEDTNSHEEMLHDDDLHEQVMDDDENEGISNKTTDENNDEKIDDANYREINESESLMQDKANDLKFNDEVNNSENQQNSSENNINNAVRNAVSSDIEYATNEDEENDERLAQDTNKEDQKLSQSEDIQHESLNNEDVSLTSNKTDDSEHLEKDSLNEDKKAEPSFNKTNKAPQKMSIKPGSKPFNVVMTPSDKKRVMDAKKNSVSRNKVNVPELKPETKKEAQDEKMNAEFDNHLNESQLNSDESSDFNVASLEYNESSEHSVEKDNIINDENTRENEHQDVDNSQNNDMPKGNQFSKVQNSNNQNDNKHDINEFVSKEGYSEVTSTKNHKDGDDANHKAPIRRGPNIKLPSLDLLEDHEEHEIDESWIEEKKQELNDAFYYFNVPAEVQNVTEGPSVTRFELAVEKGVKVSRITALQDDIKMALAAKDIRIEAPIPGTSLVGIEVPNLNPTKVNLKSILESPKFKNAESKLTVAMGNRINNEPLLMDIAKTPHALIAGATGSGKSVCINSILMSLLYKNHPEELRLLLIDPKMVELAPYNDLPHLVSPVITDVKAATQSLKWAVDEMEKRYKLFAQFHVRNITAFNKKAPYEQRMPKIVIVIDELADLMMMAPQEVEQSIARIAQKARACGIHMLVATQRPSVNVITGLIKANIPTRIAFMVSSSVDSRTILDSGGAERLLGYGDMLYLGSGMNKPIRVQGTFVSDDEIDDVVDFIKDQREPDYLFEEKELLKKNQTQAQDELFDDVCEFMVKEGHISTSLIQRHFQIGYNRAARIVDQLEQLDYISGANGSKPRDVFITEADLKKE | failed
MSYAGDITPLQAWEMLSDNPRAVLVDVRCEAEWRFVGVPDLSSLGREVVYVEWATSDGTHNDNFLAELRDRIPADADQHERPVIFLCRSGNRSIGAAEVATEAGITPAYNVLDGFEGHLDAEGHRGATGWRAVGLPWRQG | not failed
MSYFYKHCLKFSLVGLLGLLSVQLDARSFVDGDLDIQKFSYEDSLLKKGDPNGVHKVQVRDYKGKMQEAEIHSEIRIALKPGVKKEVKKGKIYSAQINDGMCYAFRMLQTGDNTTGLDSKEFPKQSREKKGRVITLIGKGEVPYLILETDCQVGDIAKISLVGNFDGTGFLTEYKFKDAKPIY | failed
MSYGLIIVLMIILGIGLWHTKKYHRAVVNQVAHVWITKNAFEHTALGMAIVSPDCRFLKVNRAYGEITGYTRPELLKMAVKELTHPEDQEKDTPYLQEVFAGNIHSFTTVKRYIHKNGSTIWVRSTISAVRTERGNLKYFVAQIQDMTIAKNAEDELRKSRDNAEVLARTDYLTKTLNRRAFIERLQEELERTKRTQEGFAMILVDIDYFKKVNDQFGHLAGDYVLQKFADCLSNNVRPYDFIGRYGGEEFIICLPDTDVEQAALVAERMRESVEALEVDYLHAQIKVTGSFGVAVYDSHSSDTLDELIEKADGAMYVAKNHKNTVYQWVS | failed
MSYLDNVRVFVRVVELGTLSAAGRDQRVTPAVASNRIKELERHMGVRLFNRTTRKLTPTEHGRVFYEGAVKILEAVNEAESAIADLSRNPKGALKITAPLGIGRRLIAPGIPEFHDRYPDIEVRLRLSDHNVDILAEGVDIAFKLGILEDSNLRMRGIMNCDRVLCGSPRYFERRGIPSSPDDLLSHSHDCLLLRYPGSKEYYWTLQTPDGVRKFEVGGPYDSDDGDVLTQWALDGRGIVNKPLFEVKQHIDEGLLVPVLEETPPLGAQLAAIYPHKRFQDPKVRLMIDFMAERCQRLIGKMLAESAEVQERSSA | failed
